Source: the supplement of paper PMC7125110
± gives the standard error. For part of these data: This sample holds only a part of the variants without activity.

B1: glmS ribozyme (parent)
chain: AUAAAAGCGCCAGAACUACAGAAAUGUAGUUGACGAGGAGGAGGUUUAUCGAAUUUUCGGCGGAUGCCUCCAAA

Assays:
Conditions in all cases: with glucosamine-6-phosphate
glucosamine-6-phosphate [1] = variants of: B1; assay: kcat; higher = faster cleavage; RNA array
Procedure, shortened: (§1)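 On sequenced MiSeq chips, barcoded ribozyme variants were made in situ by E. coli RNA polymerase and followed at 37 °C through a hybridised Cy3 probe. Glucosamine-6-phosphate was flowed in at 40 μM to 10 mM in HEPES/KCl/Mg(OAc)2 buffer. Exponential fits to normalised per-tile medians gave kobs, and weighted Michaelis–Menten fits gave kcat and KM.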

glucosamine-6-phosphate [2] = variants of: B1; assay: self-cleavage kobs at 10000 uM GlcN6P; higher = faster cleavage; RNA array
Procedure, shortened: as §1

glucosamine-6-phosphate [3] = variants of: B1; assay: KM; higher = weaker cofactor use; RNA array
Procedure, shortened: as §1

glucosamine-6-phosphate [4] = variants of: B1; assay: self-cleavage kobs at 40 uM GlcN6P; higher = faster cleavage; RNA array
Procedure, shortened: as §1

glucosamine-6-phosphate [5] = variants of: B1; assay: self-cleavage kobs at 160 uM GlcN6P; higher = faster cleavage; RNA array
Procedure, shortened: as §1

glucosamine-6-phosphate [6] = variants of: B1; assay: self-cleavage kobs at 640 uM GlcN6P; higher = faster cleavage; RNA array
Procedure, shortened: as §1

glucosamine-6-phosphate [7] = variants of: B1; assay: self-cleavage kobs at 2500 uM GlcN6P; higher = faster cleavage; RNA array
Procedure, shortened: as §1

| Variant | kcat (glucosamine-6-phosphate [1]) [s⁻¹] | self-cleavage kobs at 10000 uM GlcN6P (glucosamine-6-phosphate [2]) [s⁻¹] | KM (glucosamine-6-phosphate [3]) [µM] | self-cleavage kobs at 40 uM GlcN6P (glucosamine-6-phosphate [4]) [s⁻¹] | self-cleavage kobs at 160 uM GlcN6P (glucosamine-6-phosphate [5]) [s⁻¹] | self-cleavage kobs at 640 uM GlcN6P (glucosamine-6-phosphate [6]) [s⁻¹] | self-cleavage kobs at 2500 uM GlcN6P (glucosamine-6-phosphate [7]) [s⁻¹] |
| --- | --- | --- | --- | --- | --- | --- | --- |
| A33G C58G | < 1e-05 | < 1e-05 | – | – | – | – | – |
| C50A G59U | < 1e-05 | < 1e-05 | 181 ± 24 | < 1e-05 | < 1e-05 | < 1e-05 | – |
| C16G G37A | 0.000832 ± 0.00041 | 0.000396 ± 4.9e-05 | – | – | – | 3.76e-05 ± 1.2e-05 | 0.000292 ± 6.6e-05 |
| A12U U69A | 0.000227 ± 4.2e-05 | 0.000303 ± 4.8e-05 | – | 0.000106 ± 1.6e-05 | 0.000124 ± 2.9e-05 | 0.000292 ± 4.6e-05 | 0.000186 ± 2.9e-05 |
| C58A C61A C70U | 1.3e-05 ± 1.9e-06 | – | – | – | – | – | – |
| A12G C34U C58U C68G | 3.16e-05 ± 4.5e-06 | – | – | – | – | – | – |
| U47G U56G | 0.00559 ± 0.00071 | 0.00556 ± 0.00097 | 1560 ± 280 | 0.000148 ± 2.2e-05 | 0.000523 ± 0.00015 | 0.00151 ± 0.00034 | 0.00299 ± 0.00058 |
| A52G C68A | 2.06e-05 ± 5.7e-06 | – | – | – | – | – | – |
| A33U G38C | < 1e-05 | < 1e-05 | – | – | – | – | – |
| U30C C50G | 0.000183 ± 3.9e-05 | 0.000318 ± 9.9e-05 | – | 0.000126 ± 3.1e-05 | 0.000338 ± 0.00011 | 0.000179 ± 4.8e-05 | 0.000149 ± 3.8e-05 |
| C16G A33G C71U | 1.51e-05 ± 7.7e-07 | < 1e-05 | 137 ± 30 | – | – | – | – |
| A15G U65A | 0.00646 ± 0.0018 | 0.00545 ± 0.00064 | 3290 ± 1300 | 9.64e-05 ± 1.3e-05 | 0.000343 ± 0.00011 | 0.000867 ± 0.00018 | 0.00193 ± 0.00048 |
| G41C U55C | 0.000176 ± 4.4e-05 | 0.000129 ± 3.9e-05 | – | – | – | – | 0.00012 ± 3.6e-05 |
| U30C U46A | 1.46e-05 ± 6.8e-06 | – | – | < 1e-05 | – | – | – |
| U54G G60C C68G | 3.07e-05 ± 1.4e-05 | – | – | – | – | – | – |
| G32C A52U | < 1e-05 | – | – | < 1e-05 | – | – | – |
| G37A U55G | 0.0025 ± 0.0004 | 0.00188 ± 0.00028 | 2980 ± 830 | 2.68e-05 ± 1.3e-05 | 0.000204 ± 6.7e-05 | 0.000401 ± 9.1e-05 | 0.00122 ± 0.0002 |
| G37A U55A | 0.00489 ± 0.0022 | 0.00286 ± 0.00068 | – | 0.000128 ± 5.4e-05 | 0.000133 ± 2.8e-05 | 0.000667 ± 0.00015 | 0.00226 ± 0.00037 |

| Variant | kcat (glucosamine-6-phosphate [1]) [s⁻¹] | self-cleavage kobs at 10000 uM GlcN6P (glucosamine-6-phosphate [2]) [s⁻¹] | KM (glucosamine-6-phosphate [3]) [µM] | self-cleavage kobs at 40 uM GlcN6P (glucosamine-6-phosphate [4]) [s⁻¹] | self-cleavage kobs at 160 uM GlcN6P (glucosamine-6-phosphate [5]) [s⁻¹] | self-cleavage kobs at 640 uM GlcN6P (glucosamine-6-phosphate [6]) [s⁻¹] | self-cleavage kobs at 2500 uM GlcN6P (glucosamine-6-phosphate [7]) [s⁻¹] |
| --- | --- | --- | --- | --- | --- | --- | --- |
| G32A A39G | 0.00635 ± 0.0016 | 0.00403 ± 0.00055 | 6190 ± 2000 | 3.65e-05 ± 8.1e-06 | 0.000271 ± 7.2e-05 | 0.000619 ± 9.3e-05 | 0.00165 ± 0.0003 |
| A48G A52G | 1.36e-05 ± 9.9e-07 | – | – | – | – | < 1e-05 | – |
| C16G C50U | < 1e-05 | – | – | – | < 1e-05 | – | – |
| U30G U45A | 0.0197 ± 0.0054 | 0.0239 ± 0.0066 | 1680 ± 600 | 0.000528 ± 9.3e-05 | 0.00157 ± 0.00042 | 0.00474 ± 0.0013 | 0.0101 ± 0.0026 |
| A53G U65A C67A | 0.000109 ± 1.9e-05 | 9.28e-05 ± 2.4e-05 | – | – | 8.41e-05 ± 2.3e-05 | 0.000153 ± 3.7e-05 | 0.000112 ± 2.9e-05 |
| G29U U46C | 0.000262 ± 1.5e-05 | 0.000242 ± 2.9e-05 | 1090 ± 140 | – | 3.52e-05 ± 1.6e-05 | 9.83e-05 ± 1.4e-05 | 0.000156 ± 4.3e-05 |
| C11A G60C | < 1e-05 | – | – | – | < 1e-05 | – | – |
| C34U G60A | < 1e-05 | < 1e-05 | – | – | – | < 1e-05 | – |
| A52U U65A U69C | 1.13e-05 ± 8.7e-07 | – | 1400 ± 420 | – | – | – | – |
| U56C G66U | 0.000242 ± 4e-05 | 0.000231 ± 3.4e-05 | 1500 ± 650 | – | – | 8.87e-05 ± 2e-05 | 0.000133 ± 2e-05 |
| U31C C68U | 0.000617 ± 9.3e-05 | 0.000583 ± 4.8e-05 | 1690 ± 450 | 3.14e-05 ± 9.7e-06 | 5.34e-05 ± 8.6e-06 | 0.000175 ± 1.2e-05 | 0.000321 ± 2.9e-05 |
| U30C C71G | 4.29e-05 ± 9.8e-06 | 3.35e-05 ± 7.1e-06 | – | – | – | 4.3e-05 ± 1.8e-05 | 7.05e-05 ± 1.2e-05 |
| U46A U54A | 0.00331 ± 0.00047 | 0.00334 ± 0.00047 | 1420 ± 350 | 0.000104 ± 1.9e-05 | 0.000321 ± 8.4e-05 | 0.000932 ± 0.00035 | 0.00181 ± 0.00029 |
| C68U C71U | 0.000142 ± 7.2e-06 | 0.000123 ± 6.6e-06 | 1240 ± 180 | – | – | 4.62e-05 ± 4.3e-06 | 0.000103 ± 7.4e-06 |
| C10A G51U C68G | 4.94e-05 ± 1.5e-05 | 3.4e-05 ± 1.6e-05 | – | 3.72e-05 ± 1.7e-05 | 5.32e-05 ± 2.5e-05 | 9.82e-05 ± 3.2e-05 | – |
| U47G A52G | 0.000681 ± 0.00017 | 0.000619 ± 0.00013 | 1570 ± 620 | – | 8.74e-05 ± 1.5e-05 | 0.00017 ± 2.3e-05 | 0.000443 ± 6.8e-05 |
| G40A A64C | 6.62e-05 ± 1.1e-05 | 5.19e-05 ± 1.5e-05 | – | – | – | – | – |
